Tested on: hsSB (high-solubility Sleeping Beauty transposase, recombinant) (artificial)
Experiment: cell_activity
Conditions: HeLa, 3 weeks

Substance | activity (% Venus-positive cells) (hsSB added to culture medium, up to 3.31% in iPSCs (FIG. 9)) | activity (% Venus-positive cells) (protein electroporation, 20 ug hsSB, maximum efficiency, also active in CHO and mESC)
Venus transposon minicircle (SB LE/RE ends) | < 12 | 
Venus transposon plasmid (SB LE/RE ends) |  | 42
